Measurements from paper PMC11376570, “Enhancing the therapeutic potential of P29 protein-targeted monoclonal antibodies in the management of alveolar echinococcosis through CDC-mediated mechanisms” (PLOS Pathogens, 2024).

How the values were obtained:
[1] = target: T1, recombinant Echinococcus granulosus P29 (Echinococcus granulosus, UniProt Q9U8G7); test: SPR; called SPR by the paper; mAb 4G10F4 (5 ug/mL) captured on the AMC probe, antigen P29 at 500, 250, 125, 62.5, 31.3 and 0 nM in PBST; Octet RH16 (Sartorius), Data Analysis 12.0; conditions: both partners purified
T1 construct: P29, 29 kDa antigen of Echinococcus granulosus, GenBank AAD53328.1; 238 amino acids by the BLAST comparison with E. multilocularis P29 (235/238); band at about 30 kDa on SDS-PAGE; also called rEgP29; rEg.P29
T1 sequence (Q9U8G7 whole entry): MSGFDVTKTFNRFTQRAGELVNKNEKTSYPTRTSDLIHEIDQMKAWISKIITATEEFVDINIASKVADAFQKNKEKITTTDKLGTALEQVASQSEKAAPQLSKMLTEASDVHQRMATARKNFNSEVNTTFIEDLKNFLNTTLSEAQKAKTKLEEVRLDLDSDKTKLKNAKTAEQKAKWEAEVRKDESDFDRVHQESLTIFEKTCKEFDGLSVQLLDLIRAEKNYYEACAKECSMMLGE

[2] = target: T2, peptide 13 of the 45 overlapping peptides of rEgP29 (Echinococcus granulosus); test: ELISA; peptide scan by indirect ELISA; 45 overlapping 15-mer peptides of rEgP29 coated at 5 ug/mL; purified mAb at 1:5,000; conditions: both partners purified
T2 construct: residues 61-75 of P29 of Echinococcus granulosus, one of 45 overlapping 15-mers (overlap of 10 residues); source: synthetic peptide
T2 chain: NIASKVADAFQKNKE

B1: 4G10F4 monoclonal antibody against rEgP29 (antibody, V domains shown)
VH: EVKLEESGPGLVAPSQSLSITCTVSGFSLFSYAVHWVRQPPGKGLEWLGVIWAGGSTDYNSALMSRLSISKDNSKSQVFLKMNSLQTDDTAMYYCASIHYYGYWHFDVWGAGTTVTVSS
VL: DIVMTQSPLSLPVSLGDQASISCRSSQSIVHSNGNTYLEWYLQKPGQSPKLLIYKVSNRFSGVPDRFSGSGSGTDFTLKISRVEAEDLGVYYCFQGSHVPYTFGGGTKLEIK
notes: Mouse IgG1 (subtype by ELISA); also called 4G10F4 mAb; anti-P29 mAb; source: mouse hybridoma (BALB/c splenocytes fused with Sp2/0), culture supernatant; also purified from serum-free supernatant (protein G column)
Binder B1 has a Kd [1] of 6.29 nM, a koff [1] of 0.00049 s⁻¹ and a kon [1] of 77800 M⁻¹ s⁻¹. B1: binds [2].
